The results in this text go back to US20210388087A1 (Chugai, published 2021).

B1: CE115HA000 V100cP one-arm antibody (antibody, human IgG1, kappa, L234A L235A, N297A, name in Kabat numbering)
heavy: QVQLVESGGGVVQPGRSLRLSCAASGFTFSNAWMHWVRQAPGKGLEWVAQIKAKSNNYATYYAESVKGRFTISRDDSKNSLYLQMNSLKTEDTAVYYCRYVHYGAYYGPDAWGQGTTVTVSSASTKGPSVFPLAPSSKSTSGGTAALGCLVKDYFPEPVTVSWNSGALTSGVHTFPAVLQSSGLYSLSSVVTVPSSSLGTQTYICNVNHKPSNTKVDKKVEPKSCDKTHTCPPCPAPEAAGGPSVFLFPPKPKDTLMISRTPEVTCVVVDVSHEDPEVKFNWYVDGVEVHNAKTKPREEQYASTYRVVSVLTVLHQDWLNGKEYKCKVSNKALPAPIEKTISKAKGQPREPQVYTLPPSRCELTKNQVSLSCAVKGFYPSDIAVEWESNGQPENNYKTTPPVLDSDGSFFLVSKLTVDKSRWQQGNVFSCSVMHEALHNHYTQKSLSLSPDYKDDDDK
chain: EPKSSDKTHTCPPCPAPELLGGPSVFLFPPKPKDTLMISRTPEVTCVVVDVSHEDPEVKFNWYVDGVEVHNAKTKPREEQYNSTYRVVSVLTVLHQDWLNGKEYKCKVSNKALPAPIEKTISKAKGQPREPQVCTLPPSRDELTKNQVSLWCLVKGFYPSDIAVEWESNGQPENNYKTTPPVLDSDGSFFLYSKLTVDKSRWQQGNVFSCSVMHEALHNRYTQKSLSLSP
light: DIVMTQSPLSLPVTPGEPASISCRSSQSLVHSNRNTYLHWYQQKPGQAPRLLIYKVSNRFSGVPDRFSGSGSGTDFTLKISRVEAEDVGVYYCGQGTQVPYTFGQGTKLEIKRTVAAPSVFIFPPSDEQLKSGTASVVCLLNNFYPREAKVQWKVDNALQSGNSQESVTEQDSKDSTYSLSSTLTLSKADYEKHKVYACEVTHQGLSSPVTKSFNRGEC
B2: CE115HA000 W33F one-arm antibody (antibody, human IgG1, kappa, L234A L235A, N297A, name in Kabat numbering)
heavy: QVQLVESGGGVVQPGRSLRLSCAASGFTFSNAFMHWVRQAPGKGLEWVAQIKAKSNNYATYYAESVKGRFTISRDDSKNSLYLQMNSLKTEDTAVYYCRYVHYGAYYGVDAWGQGTTVTVSSASTKGPSVFPLAPSSKSTSGGTAALGCLVKDYFPEPVTVSWNSGALTSGVHTFPAVLQSSGLYSLSSVVTVPSSSLGTQTYICNVNHKPSNTKVDKKVEPKSCDKTHTCPPCPAPEAAGGPSVFLFPPKPKDTLMISRTPEVTCVVVDVSHEDPEVKFNWYVDGVEVHNAKTKPREEQYASTYRVVSVLTVLHQDWLNGKEYKCKVSNKALPAPIEKTISKAKGQPREPQVYTLPPSRCELTKNQVSLSCAVKGFYPSDIAVEWESNGQPENNYKTTPPVLDSDGSFFLVSKLTVDKSRWQQGNVFSCSVMHEALHNHYTQKSLSLSPDYKDDDDK
chain: EPKSSDKTHTCPPCPAPELLGGPSVFLFPPKPKDTLMISRTPEVTCVVVDVSHEDPEVKFNWYVDGVEVHNAKTKPREEQYNSTYRVVSVLTVLHQDWLNGKEYKCKVSNKALPAPIEKTISKAKGQPREPQVCTLPPSRDELTKNQVSLWCLVKGFYPSDIAVEWESNGQPENNYKTTPPVLDSDGSFFLYSKLTVDKSRWQQGNVFSCSVMHEALHNRYTQKSLSLSP
light: DIVMTQSPLSLPVTPGEPASISCRSSQSLVHSNRNTYLHWYQQKPGQAPRLLIYKVSNRFSGVPDRFSGSGSGTDFTLKISRVEAEDVGVYYCGQGTQVPYTFGQGTKLEIKRTVAAPSVFIFPPSDEQLKSGTASVVCLLNNFYPREAKVQWKVDNALQSGNSQESVTEQDSKDSTYSLSSTLTLSKADYEKHKVYACEVTHQGLSSPVTKSFNRGEC
B3: CE115HA000 W33D one-arm antibody (antibody, human IgG1, kappa, L234A L235A, N297A, name in Kabat numbering)
heavy: QVQLVESGGGVVQPGRSLRLSCAASGFTFSNADMHWVRQAPGKGLEWVAQIKAKSNNYATYYAESVKGRFTISRDDSKNSLYLQMNSLKTEDTAVYYCRYVHYGAYYGVDAWGQGTTVTVSSASTKGPSVFPLAPSSKSTSGGTAALGCLVKDYFPEPVTVSWNSGALTSGVHTFPAVLQSSGLYSLSSVVTVPSSSLGTQTYICNVNHKPSNTKVDKKVEPKSCDKTHTCPPCPAPEAAGGPSVFLFPPKPKDTLMISRTPEVTCVVVDVSHEDPEVKFNWYVDGVEVHNAKTKPREEQYASTYRVVSVLTVLHQDWLNGKEYKCKVSNKALPAPIEKTISKAKGQPREPQVYTLPPSRCELTKNQVSLSCAVKGFYPSDIAVEWESNGQPENNYKTTPPVLDSDGSFFLVSKLTVDKSRWQQGNVFSCSVMHEALHNHYTQKSLSLSPDYKDDDDK
chain: EPKSSDKTHTCPPCPAPELLGGPSVFLFPPKPKDTLMISRTPEVTCVVVDVSHEDPEVKFNWYVDGVEVHNAKTKPREEQYNSTYRVVSVLTVLHQDWLNGKEYKCKVSNKALPAPIEKTISKAKGQPREPQVCTLPPSRDELTKNQVSLWCLVKGFYPSDIAVEWESNGQPENNYKTTPPVLDSDGSFFLYSKLTVDKSRWQQGNVFSCSVMHEALHNRYTQKSLSLSP
light: DIVMTQSPLSLPVTPGEPASISCRSSQSLVHSNRNTYLHWYQQKPGQAPRLLIYKVSNRFSGVPDRFSGSGSGTDFTLKISRVEAEDVGVYYCGQGTQVPYTFGQGTKLEIKRTVAAPSVFIFPPSDEQLKSGTASVVCLLNNFYPREAKVQWKVDNALQSGNSQESVTEQDSKDSTYSLSSTLTLSKADYEKHKVYACEVTHQGLSSPVTKSFNRGEC
B4: CE115HA000 W33H one-arm antibody (antibody, human IgG1, kappa, L234A L235A, N297A, name in Kabat numbering)
heavy: QVQLVESGGGVVQPGRSLRLSCAASGFTFSNAHMHWVRQAPGKGLEWVAQIKAKSNNYATYYAESVKGRFTISRDDSKNSLYLQMNSLKTEDTAVYYCRYVHYGAYYGVDAWGQGTTVTVSSASTKGPSVFPLAPSSKSTSGGTAALGCLVKDYFPEPVTVSWNSGALTSGVHTFPAVLQSSGLYSLSSVVTVPSSSLGTQTYICNVNHKPSNTKVDKKVEPKSCDKTHTCPPCPAPEAAGGPSVFLFPPKPKDTLMISRTPEVTCVVVDVSHEDPEVKFNWYVDGVEVHNAKTKPREEQYASTYRVVSVLTVLHQDWLNGKEYKCKVSNKALPAPIEKTISKAKGQPREPQVYTLPPSRCELTKNQVSLSCAVKGFYPSDIAVEWESNGQPENNYKTTPPVLDSDGSFFLVSKLTVDKSRWQQGNVFSCSVMHEALHNHYTQKSLSLSPDYKDDDDK
chain: EPKSSDKTHTCPPCPAPELLGGPSVFLFPPKPKDTLMISRTPEVTCVVVDVSHEDPEVKFNWYVDGVEVHNAKTKPREEQYNSTYRVVSVLTVLHQDWLNGKEYKCKVSNKALPAPIEKTISKAKGQPREPQVCTLPPSRDELTKNQVSLWCLVKGFYPSDIAVEWESNGQPENNYKTTPPVLDSDGSFFLYSKLTVDKSRWQQGNVFSCSVMHEALHNRYTQKSLSLSP
light: DIVMTQSPLSLPVTPGEPASISCRSSQSLVHSNRNTYLHWYQQKPGQAPRLLIYKVSNRFSGVPDRFSGSGSGTDFTLKISRVEAEDVGVYYCGQGTQVPYTFGQGTKLEIKRTVAAPSVFIFPPSDEQLKSGTASVVCLLNNFYPREAKVQWKVDNALQSGNSQESVTEQDSKDSTYSLSSTLTLSKADYEKHKVYACEVTHQGLSSPVTKSFNRGEC
B5: CE115HA000 W33L one-arm antibody (antibody, human IgG1, kappa, L234A L235A, N297A, name in Kabat numbering)
heavy: QVQLVESGGGVVQPGRSLRLSCAASGFTFSNALMHWVRQAPGKGLEWVAQIKAKSNNYATYYAESVKGRFTISRDDSKNSLYLQMNSLKTEDTAVYYCRYVHYGAYYGVDAWGQGTTVTVSSASTKGPSVFPLAPSSKSTSGGTAALGCLVKDYFPEPVTVSWNSGALTSGVHTFPAVLQSSGLYSLSSVVTVPSSSLGTQTYICNVNHKPSNTKVDKKVEPKSCDKTHTCPPCPAPEAAGGPSVFLFPPKPKDTLMISRTPEVTCVVVDVSHEDPEVKFNWYVDGVEVHNAKTKPREEQYASTYRVVSVLTVLHQDWLNGKEYKCKVSNKALPAPIEKTISKAKGQPREPQVYTLPPSRCELTKNQVSLSCAVKGFYPSDIAVEWESNGQPENNYKTTPPVLDSDGSFFLVSKLTVDKSRWQQGNVFSCSVMHEALHNHYTQKSLSLSPDYKDDDDK
chain: EPKSSDKTHTCPPCPAPELLGGPSVFLFPPKPKDTLMISRTPEVTCVVVDVSHEDPEVKFNWYVDGVEVHNAKTKPREEQYNSTYRVVSVLTVLHQDWLNGKEYKCKVSNKALPAPIEKTISKAKGQPREPQVCTLPPSRDELTKNQVSLWCLVKGFYPSDIAVEWESNGQPENNYKTTPPVLDSDGSFFLYSKLTVDKSRWQQGNVFSCSVMHEALHNRYTQKSLSLSP
light: DIVMTQSPLSLPVTPGEPASISCRSSQSLVHSNRNTYLHWYQQKPGQAPRLLIYKVSNRFSGVPDRFSGSGSGTDFTLKISRVEAEDVGVYYCGQGTQVPYTFGQGTKLEIKRTVAAPSVFIFPPSDEQLKSGTASVVCLLNNFYPREAKVQWKVDNALQSGNSQESVTEQDSKDSTYSLSSTLTLSKADYEKHKVYACEVTHQGLSSPVTKSFNRGEC
B6: CE115HA000 W33A one-arm antibody (antibody, human IgG1, kappa, L234A L235A, N297A, name in Kabat numbering)
heavy: QVQLVESGGGVVQPGRSLRLSCAASGFTFSNAAMHWVRQAPGKGLEWVAQIKAKSNNYATYYAESVKGRFTISRDDSKNSLYLQMNSLKTEDTAVYYCRYVHYGAYYGVDAWGQGTTVTVSSASTKGPSVFPLAPSSKSTSGGTAALGCLVKDYFPEPVTVSWNSGALTSGVHTFPAVLQSSGLYSLSSVVTVPSSSLGTQTYICNVNHKPSNTKVDKKVEPKSCDKTHTCPPCPAPEAAGGPSVFLFPPKPKDTLMISRTPEVTCVVVDVSHEDPEVKFNWYVDGVEVHNAKTKPREEQYASTYRVVSVLTVLHQDWLNGKEYKCKVSNKALPAPIEKTISKAKGQPREPQVYTLPPSRCELTKNQVSLSCAVKGFYPSDIAVEWESNGQPENNYKTTPPVLDSDGSFFLVSKLTVDKSRWQQGNVFSCSVMHEALHNHYTQKSLSLSPDYKDDDDK
chain: EPKSSDKTHTCPPCPAPELLGGPSVFLFPPKPKDTLMISRTPEVTCVVVDVSHEDPEVKFNWYVDGVEVHNAKTKPREEQYNSTYRVVSVLTVLHQDWLNGKEYKCKVSNKALPAPIEKTISKAKGQPREPQVCTLPPSRDELTKNQVSLWCLVKGFYPSDIAVEWESNGQPENNYKTTPPVLDSDGSFFLYSKLTVDKSRWQQGNVFSCSVMHEALHNRYTQKSLSLSP
light: DIVMTQSPLSLPVTPGEPASISCRSSQSLVHSNRNTYLHWYQQKPGQAPRLLIYKVSNRFSGVPDRFSGSGSGTDFTLKISRVEAEDVGVYYCGQGTQVPYTFGQGTKLEIKRTVAAPSVFIFPPSDEQLKSGTASVVCLLNNFYPREAKVQWKVDNALQSGNSQESVTEQDSKDSTYSLSSTLTLSKADYEKHKVYACEVTHQGLSSPVTKSFNRGEC

T1 sequence (P07766 23-126): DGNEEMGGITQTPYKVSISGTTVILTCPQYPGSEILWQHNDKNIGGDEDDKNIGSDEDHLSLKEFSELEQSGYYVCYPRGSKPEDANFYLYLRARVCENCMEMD

The assay addresses T1, CD3 epsilon homodimer protein (UniProt P07766 23-126).
T1 construct: immobilized on Sensor chip CM4 by amine coupling; also called CD3 (CD3 epsilon)
The assay can be described thus: SPR (Biacore T200), CD3 epsilon homodimer on CM4 chip, one-arm antibody as analyte, 25 C.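 Further: homodimer attached to the sensor surface via amine coupling, HBS-EP+ used as running buffer during binding runs.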 A general note: SPR reads the build-up and loss of mass on a sensor chip optically.
With B1, the “ratio of amounts bound (altered form / CE115HA000)” value amounted to 0.2. As to B2, the “ratio of amounts bound (altered form / CE115HA000)” value stood at 0.65. For B3 the value was 0.1. The value for B4 was 0.13; that for B5 was 0.1.

Consider B6, for which the “ratio of amounts bound (altered form / CE115HA000)” value was 0.1.
